Experimental data published in a protein production outcome set (Wang et al. 2014).

Assay: label from the status in PepcDB records

Sequence | protein production
AIVNASNNAILTTSITGEILSANPAAVQMFQSLEQELKGISVSRLFAEKDEMHFFFDFQSNVYSLQRKALGISVECLSLRSDGTEFPAQAELQWADRAKQPLIVITFINLS | failed
MVKVSIICTNYNKGSWIGEAIDSFLKQETSFPYEIIIVDDASTDHSVHIIKTYQKQYPDLIRAFFNQENQGITKTWSDICKKARGQYIARCDGDDYWIDPFKLQKQIDLLETSPESKWSNTDFDMVDSKGNIIHKDVLKNNIIPFMDSYEKMLALKGMTMASTWLVETKLMLEINDRINKDAVDDTFNIQLELFKKTKLAFLRDSTTVYRMDAESDSRSKDSEKLAQRFDRLLETQLEYIEKYPDSDYKKVLEYLLPKHNDFEKVLAQDGKNVWDNQQITIYLAKGDDQEFSEENCFQFPLQHSGNIQLTFPENIRKIRIDLSEIPSYYRQVSLVNTTVNTELLPTWTNAKVFGYSYYFIAPDPQMIYDLTAQEGQDFKLTYEWFNVDRPSQPDFLANHLVKELDQKKVELKMLSPYKYQYQKAVAERDLYLEQLNEMVVRYNSVTHSRRWTIPTKIINLFRRKK | failed
MREVNEGASAYPGQRATGESIERGGGGLSVSDLLAKVMTAAAPQPTGSGTESGPGAGPTAGPSLDVDGLAVAVAATAGRYLPGGHLSPDSDFFDAGGTSVHAVELVAELERELGMEIALDDVFADARPRTLARRWLSAGGAPAAHSATPATPEPTAAGVAATGVTAIGATAAGAAVAGATAAGVAATPGLLPLSAAGTRPAPAPSGLPVPSPRTPPAVAATPPPGSGDAPYSTARREDLDQILADLALADRLPWTGAPEPLPPRRILLTGATGFLGSHMLLDLLRHSDAHVYCLVRAADEEAATARLGQALKGYELPWSSEVRRRVTVLPGDIRHPRLGLSDDLWNTLAHELDSVVGVAAAVDFLRGYPSLRQSNVLGALTLAELAATGRPKPLHHISSIAVFNEVGITAMGEDDPLARVDRLVAGYDQTKWTAEVALRRARDHGLLVTAMRPGGIGGHTRTGAYNPQDLSSGLISAFGRFRTVPAFRYLNAAPVDWVSRVAVGVICEPDAWGYDYNLTGVPNTLDDVVQDMALGGMHVRVQDWDEWRTDALARLEADPVPELAFLTRVLRSPTALKLCEATLKGPAAHDDRTAALVEALGLGPAARYDAQAQLRTFERLARDGLARLPHKDDQPYLWFSERTEGGVGPVGAPADTPCSMALTLSIASMYQLVKERRVDVSGELVCAAVHPEPLTVERGDVWIRPEEGIPEQHGMRHQLLRYRLELRDTDGGHWWLEGHKYARARRDVWRQTRALTVEIGRAGEPARLTGEVVVPADSYVRDQIDGIKVDPRLTSQEKRAAKLTWLAWFGLEVGRGLLGPFARVAADLLDLRRNPTLTERNR | failed
MSSEKERKKKIFFQRILTVVFLGTFFYSVYELGDIFMDYYENRKVMAEAQNIYEKSPMEEQSQDGEVRKQFKALQQINQEIVGWITMDDTQINYPIVQAKDNDYYLFRNYKGEDMRAGSIFMDYRNDVKSQNRNTILYGHRMKDGSMFGSLKKMLDEEFFMSHRKLYYDTLFEGYDLEVFSVYTTTTDFYYIETDFSSDTEYTSFLEKIQEKSLYKTDTTVTAGDQIVTLSTCDYALDPEAGRLVVHAKLVKRQ | not failed
MWITQETWLKALPWNKKRYRSQIMEVICKHYTPLDIASQAIRTCWQSFEYSDDGGCKDKELIHRVGNIFRHSSTLEHLYYNFEIKGLSRGALQELSRHRIASLSVKSSRYTLRELKEVESFLPLNETNLERAKEFLVFVDNEKVNAMSVLALENLRILLSEHNIKNDLAKYAMPESYKTHLAYSINARSLQNFLTLRSSNKALKEMQDLAKALFDALPGEHQYLFEDCLKH | failed
AEPVLGDDGLYQLDWYLQSFLDLKEDLEGATAKGKRFAILWGLKGCPYCKKLHDVHMRDPAIESYIRDNFEIVHLNHIGAREVTDFDGSKLSEKAFAQAYGIRFTPSLQFFPESADGLAAKKPQDREVARMPGLLEPPEFLAMFKYVREKGYQSM | failed
MSRTVMCRKYHEELPGLDRPPYPGAKGEDIYNNVSRKAWDEWQKHQTMLINERRLNMMNAEDRKFLQQEMDKFLSGEDYAKADGYVPPSA | not failed
MGLIYKVADQDWEFERIHKLNYKTFVEEIPQHEETKDRVRIDRFHDENTYLICLDEDKLVGMVALRGKRPFSLDYKISNLDFYLQEHGENVYEIRLLSVEREYRNGRALLGLIRFLHRYLLLNGYELALISATTRELPLYEQMGFKSFHTL | failed
MEMIGGDDTDTEMYGALVTAQSLRLRHLHHCRENQCTSVLVKYIQAPVHLVWSLVRRFDQPQKYKPFISRCTVNGDPEIGCLREVNVKSGLPATTSTERLEQLDDEEHILGINIIGGDHRLKNYSSILTVHPEMIDGRSGTMVMESFVVDVPQGNTKDDTCYFVESLIKCNLKSLACVSERLAAQDITNSIATFCNASNGYREKNHTETNL | failed
MSPPPAVVTESADGQPEQPPVTAIAEELEKKLQTDEPIVEDVKDDEDDDDDDEEEEDDDAQGVSGSSKQSRSEKKSRKAMLKLGMKPVTGVSRVTIKRTKNVLFFISKPDVFKSPHSETYVIFGEAKIEDLSSQLQTQAAQQFRMPEIGATSQRAEASTATVEAQVEEDEEEIDETGVEARDIDLVMTQAGVSRSKAVKALKSHDGDIVSAIMELTT | failed
MNNVTTTLTDTTWYKAGTITDVPENGGACAMIQGKQIAIFNFTRRDEWFATDNLCPHKQQMILSRGMIGDMSEEPKVACPFHKKSFSLKDGHCMSGDDYTIKTYPIKVEDGLIFIGLNE | failed
MTLELLQAQAQNCTACRLMEGRTRVVFGEGNPDAKLMIVGEGPGEEEDKTGRPFVGKAGQLLNRILEAAGIPREEVYITNIVKCRPPQNRAPLPDEAKICTDKWLLKQIELIAPQIIVPLGAVAAEFFLGEKVSITKVRGKWYEWHGIKVFPMFHPAYLLRNPSRAPGSPKHLTWLDIQEVKRALDALPPKERRPVKAVSQEPLF | not failed
GYIQMPLFRLHVQVFTPEREIPLGTVCLLHGYLEHSGIYQPIIREILDQGFSVVTYDLPGHGLSDGSPANIQNFDHYQQVLMAVYQYVKNADQLPKPWLGIGQSTGGAIWMHHLLEYAEKRQDPIVDRVLLLSPLIRPAKTAWWHNSVGLGIIRRIRRQVPRHFRRNNHNPEFLRFIRLKDPLQPRMMGMDWILAMSKWMFEMEQRPACRIPVWLAQGALDQTVDWRYNIEFIRRKFRLQTLLMLEEGSHQLINERADIRAALTGLIPAFLHAR | failed
MLLNEIPWTIPLTVRLSNGLTHTFASVYEALDFLENEWPLRKGERYERAVRTCRRALNRMTPAAVAREAFIAACLEAGMPLVMAPPAREPQGDTVKAAHTA | not failed
MMASYLSTPSVSYSMKSYDPVKVLYTVIISLVSLYTLYITSAFFYVLILSALFAYIIHPVYFFCIRFVKSKQICALIPLGTIFLITLASGVMIVKALMNEISRILEIPNTINGFANMDLRRIVGLFEPLIQTHPGKLTESIGAYLNSLVTDYVPQIQNNIFQISTGLSILIIELIVIVVLTYYLLVESETIATELPNLFPDRKVGVVFLGELNYIYQNLFIVYFLTCLITGIIGGVLYWALGVPYSLIWGILTFIMALLPVVGAGTVYGLLALYYVLIDDFFTAGALIFLGIVFLSIIPDFIMRPRFARNRAAIHPAITLVAFAAPVFVLGPIGIIIGPLTYGFLLAAFRTRKILGTSSAQTESSAAGSPEDLVGSQREKSDESPVGRSVERPVKASGERSRSGN | failed
MLRLVKTRPSLRLGPSETAVIRVLDQERIDRINQDLTRAWKADVETTCVLSGILLLPCLILICLLDGPLFAKVILCTFLCLMVGGWCIAKWLNAQAQPRTDITGVKVEQLEGYFDRRWVRNGGKPYIEYSFGKHWLHIQTSACSFFSGDTQLKLNRRYRVDALYLTGHSSAYTGYYLLEETFKEIFDDSDLSAAEKIQIAEREKRINQDLEEQHKRLYRLYRNPQGELEAVAIGFNFAACFLTVLWSFCVSLYWVTGLTLAALGLILLIPDTGAGHPWFALGWLLSAGVFGACGNLWRERQVLSKGFVQVDALLSCNPDQAKVQYKRKVEEAAPGFGQ | failed
MGEEEMPVHPDLEAFIESIPWHRHLGLKVLALHPGHARLVIPFQAGFTGNAARGALHGGIIASLADSCGNAALWTHFGPDDRIATINIGVDYFRPAPLADLMAEAEVRLLGNRIGNVHVRLAPLAEPSQTVAEGRTVCYVKRMSLEHHHHHH | failed
MGHHHHHHSHAHTTTSMEIFGSPEQVWQLIGGFNSLPDWLPYIPSSKLTEGGRVRHLANPDGDTIIERLEVFNDKERYYTYSIMNAPFPVTNYLSTIQVKEGTESNTSLVEWSGTFTPVEVSDEEAINLFHGIYSDGLKALQQAF | not failed
TNNGKQFIHNDTMEGGKLVCREIYAMNDAASGILNPVKMYKYSYDTDQQKTVKSTYAWNIFKNTWETESRTVISRYETETSVEYSVWNKEKGSFDLSKKYIYITDNNNQLIAQYAYKMNSRTNQWILEKDALTPIYENIYATTR | not failed
QAAPSQVVVIRQERAGQTSVSLLWQEPEQPNGIILEYEIKYYEKDKEMQSYSTLKAVTTRATVSGLKPGTRYVFQVRARTSAGCGRFSQAMEVETGKP | not failed
MSYKVEAVPDSYAALGEGPHWDVDRQSLYYVDLESAGINRYDFKQNKVYRAKIEGEIFASFILPVENKPQEFAVGCGLRTVIVQWDGVSAVAKVTRTLFEVQPDLKENRLNDAKTDPNGRFYGGTMADSGDIFTQWKGELYSWQAGGQPNAIRSKVGISNGLAWDVKAKKFYFIDTNNHEVLAYDYNQSTGAVSNPKVIFDLRKIRPEGPLFPDGMTVDTDGNIYVATFNGGTVFKVNPSTGKILLEIKIPTTQITSVAFGGPNLDILYVTTANKFDQPKPAGTTFQVTGLNAKGYAGVNLKI | failed
MTQWASWKQAIVSLAMLVSFSLFGQQNVQTPPEVVQARFIGNETCIDCHQVEVEAWQGSHHDMAMRHADSESVLGNFDNQAVEHQGKANRFYRKGDEYWVNIQGPDGQWHDYKISYTFGWVPLQQYMVEFDDGRIQLIPFAWDSRSVEQGGQRWFHLYPDTTTTDEFYWTNTGQNWNFMCADCHSTNLKKNYDAQSNTYQTTWSEINVSCEACHGPASLHVEMAKQAKQNGMPIATANHYGFSRDLSAAVKEWVYKEGHSTLQPKDIVPTNQVQTCAQCHSRRTQLNEEADHVKGAFLDKYRLSLITPELYYHDGQIYDEDYVYGSFLQSAMAEKGVTCTNCHDPHSAQLKIPEEAVCAQCHVASDYLPENHTFHQANTEASKCTTCHMPETTYMQVDPRRDHSWHVPRPDLSKHINTPNVCTACHDDKDAKWADEQIGQWFPKSKYRNTQHFSVAFYADAIGHRGGSDALAYTAQDSSISDIIRASALERMAGNTGQNTLVALARAVKHENEMIRLGAVAGSAGYDFSDRWQILQPLLSDPVLSVRTEAAAALVSHYGEMNPLQRERIQKPLDEYMDIQRFNADRGFGRTNLANVYRSLGEASKAIELYQQAIDIEPYFENSYVNLADMYRRQGDEAKAVQILNAGMKAQPKSSSLPYSAGLALLRQGNSKQANQYLKQAAESAKDNAQYWYVYGLALEKSDVLEASKALNKAFEVGGDPRHLYAQCEVLARNYRQGGVAFAFEQCTKQLGAHAPEEVIQQLKATVTTKK | failed
MVPKFYKLSNGFKIPSIALGTYDIPRSQTAEIVYEGVKCGYRHFDTAVLYGNEKEVGDGIIKWLNEDPGNHKREEIFYTTKLWNSQNGYKRAKAAIRQCLNEVSGLQYIDLLLIHSPLEGSKLRLETWRAMQEAVDEGLVKSIGVSNYGKKHIDELLNWPELKHKPVVNQIEISPWIMRQELADYCKSKGLVVEAFAPLCHGYKMTNPDLLKVCKEVDRNPGQVLIRWSLQHGYLPLPKTKTVKRLEGNLAAYNFELSDEQMKFLDHPDAYEPTDWECTDAP | failed
